This note sets out measurements from patent publication US20230391881A1 (UNIVERSITY OF VIRGINIA PATENT FOUNDATION, published 2023).

One test deals with T1, FOLR1 (UniProt P15328 25-234).
T1 construct: also called folate receptor alpha
As to the kind of experiment: immunoprecipitation, immunoblot with commercial FOLR1 antibody (FIG. 14C). Background: In western blotting, separated proteins are transferred to a membrane and probed.

For test [1], the target named is T2, Chi-G4S-DR5 (chimeric DR5: human DR5 extracellular domain, G4S linker, mouse DR5 transmembrane and … (chimeric: human DR5 ECD, mouse DR5 TM …)).
T2 construct: Stably expressed on murine 4T1 cells; also called Chimeric human-mouse DR5 G4S
As to the kind of experiment: flow cytometry on Chi-G4S-DR5 stable 4T1 cells (FIG. 15A).

T1 sequence (P15328 25-234 limits assumed): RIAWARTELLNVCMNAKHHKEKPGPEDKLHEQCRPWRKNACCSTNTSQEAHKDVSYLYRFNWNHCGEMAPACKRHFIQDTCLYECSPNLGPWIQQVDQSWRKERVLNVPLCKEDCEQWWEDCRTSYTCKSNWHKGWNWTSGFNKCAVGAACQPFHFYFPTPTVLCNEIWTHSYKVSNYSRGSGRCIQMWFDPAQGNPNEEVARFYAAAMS

B1: Farletuzumab (antibody, V domains shown)
VH: EVQLVESGGGVVQPGRSLRLSCSASGFTFSGYGLSWVRQAPGKGLEWVAMISSGGSYTYYADSVKGRFAISRDNAKNTLFLQMDSLRPEDTGVYFCARHGDDPAWFAYWGQGTPVTVSS
VL: DIQLTQSPSSLSASVGDRVTITCSVSSSISSNNLHWYQQKPGKAPKPWIYGTSNLASGVPSRFSGSGSGTDYTFTISSLQPEDIATYYCQQWSSYPYMYTFGQGTKVEIKR
notes: also called clinical anti-FOLR1, farletuzumab
For B1, in the test with FOLR1, the binding result is on record as “binds”.

B2: Tigatuzumab (antibody, human IgG1, kappa, L234A L235A, V domains shown)
VH: EVQLVESGGGLVQPGGSLRLSCAASGFTFSSYVMSWVRQAPGKGLEWVATISSGGSYTYYPDSVKGRFTISRDNAKNTLYLQMNSLRAEDTAVYYCARRGDSMITTDYWGQGTLVTVSS
VL: DIQMTQSPSSLSASVGDRVTITCKASQDVGTAVAWYQQKPGKAPKLLIYWASTRHTGVPSRFSGSGSGTDFTLTISSLQPEDFATYYCQQYSSYRTFGQGTKVEIKR
notes: also called clinical tigatuzumab antibody
Take B2: in test [1], the binding result is on record as “binds”.
